# Laboratory results taken from the supplement of paper PMC12764529.
# ± gives the half width of the 95% confidence interval.
# Columns and labels:
# [1] = folding stability dG unfold from chymotrypsin proteolysis; higher = more stable
# Description: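 Folding stability of de novo designed mini-proteins (<80 aa, no Cys; designed by TrROS, TrMRF, ProteinMPNN and the joint model) was measured by cDNA display proteolysis with trypsin and chymotrypsin. Each protease was used at 11 concentrations in a threefold dilution series plus a no-protease condition. K50 was inferred by Bayesian fitting of sequencing counts, and dG unfold was derived against a sequence-predicted unfolded-state K50 (Tsuboyama et al. method). Sequences shown include variable-length N-terminal GS-type padding (SAGGSAGG...) inside a display construct carrying a PA tag. Rows were kept only if the AF2 dimer inter-PAE was >15, to exclude likely homo-oligomers.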
# [2] = folding stability dG unfold (combined trypsin and chymotrypsin); higher = more stable
# In short: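 Digests were run with trypsin and chymotrypsin at 11 concentrations in threefold dilutions, plus a no-protease condition, on designed mini-proteins in a PA-tagged cDNA display construct. The mini-proteins were under 80 residues, had no cysteine, and were kept only when AlphaFold2 dimer inter-PAE was above 15. After sequencing, Bayesian fitting of the counts gave K50, from which unfolding free energy was derived against a sequence-predicted unfolded-state K50 and a shared folded-state K50, per protease or combined.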
Sequence,folding stability dG unfold [1],folding stability dG unfold [2]
SAGGSAGGSAGGSLVSTSPLPSSSTLVTEKGPSPEVTVTVVTVKPGGSRSVTTLPVSESSAGGSAGGSAGGS [r10_140_JUSTAS],0.474 ± 0.057 kcal/mol,-0.143 ± 0.12 kcal/mol
SAGGSAGGSAGGSMETVEVTEVSFDPSKGTRFVKTTVTRKDEKGNWVEKEEWITEPVLGSAGGSAGGSAGGS [r4_85_JUSTAS],0.338 ± 0.059 kcal/mol,-0.0805 ± 0.12 kcal/mol
SAGGSAGGSAGGSMKTEEVVYVKTPDAWVRLKKEEAEKLEKETGVKIERESFTLPAGALESAGGSAGGSAGG [r7_185_JUSTAS],0.89 ± 0.17 kcal/mol,0.405 ± 0.24 kcal/mol
SAGGSAGGSAGGSMKTITFTDPAEIAAAIEEAEKEGVEEVVLLTPEGKTRVIPKGVPLPSAGGSAGGSAGGS [r4_260_JUSTAS],0.516 ± 0.083 kcal/mol,-0.00846 ± 0.37 kcal/mol
SAGGSAGGSAGGSMKTTTLTVKPEELEEVKKKLTPPDKTVTIKSVTKDPKEDLVTLTVESAGGSAGGSAGGS [r10_1030_JUSTAS],-0.517 ± 0.59 kcal/mol,-0.923 ± 0.65 kcal/mol
SAGGSAGGSAGGSMVYRVVLEPESGERVEFEVTYDEAEELLEKLPPNARLRIEPVPEDASAGGSAGGSAGGS [r4_63_TrMRF],0.265 ± 0.13 kcal/mol,-0.0741 ± 0.17 kcal/mol
SAGGSAGGSAGGSSSMTSEKVTEKTEFDKETGKKYKIITQRISPSSVGNSSLKTEIKLESAGGSAGGSAGGS [r10_535_JUSTAS],-0.0486 ± 0.25 kcal/mol,-0.735 ± 0.61 kcal/mol
SAGGSAGGSAGGSSVVIVADSAEEAKAALKELGIKDAKVVPLKPVKVFTDEQLKELKKKSAGGSAGGSAGGS [r4_101_TrROS_Hall],0.943 ± 0.039 kcal/mol,0.276 ± 0.28 kcal/mol
SAGGSAGGSAGGSVEIRDARIELGDNTLRIEISFPDGGTRRIEIEVEPVPPLPPSLLDRSAGGSAGGSAGGS [r4_372_TrMRF],0.109 ± 0.11 kcal/mol,< -1 kcal/mol
SAGGSAGGSAGGSWMRMEAEVRHPNKRDVTIPIPYRSKDGEPDMKERAKEFARELAKDYSAGGSAGGSAGGS [r4_168_TrROS],-0.315 ± 0.21 kcal/mol,< -1 kcal/mol
SAGGSAGGSAGGTVKELMKKLPFGAQIEIDEIEHDKGRIEIPIRVENMPPEWREKLRKLSAGGSAGGSAGGS [r10_733_TrROS],0.0365 ± 0.15 kcal/mol,-0.305 ± 0.23 kcal/mol
SAGGSAGGSAGGVAEWIQEQGFKVKDIPVPRPPNGNPWVKVEVEHDGGKRTYEIPLDEISAGGSAGGSAGGS [r10_35_TrROS],0.487 ± 0.12 kcal/mol,0.0288 ± 0.14 kcal/mol
SAGGSAGGSAGGVRPNPNGQYEVTVTIRNPGGGNKREKTINATPDEIEELQDQGFEIEPSAGGSAGGSAGGS [r10_749_TrROS],-1.08 ± 0.35 kcal/mol,< -1 kcal/mol
SAGGSAGGSAGGVYKVEIEIGDAPRTLVVENAAPEEIRAFLEHPEVRRARVEPLSPEELGSAGGSAGGSAGG [r7_502_TrMRF],0.216 ± 0.12 kcal/mol,-0.152 ± 0.11 kcal/mol
SAGGSAGGSAGGYDPNDKPVVEVPIELPPNDKKNPDRMKENAEEIANPLQEKGKPDRIVSAGGSAGGSAGGS [r10_723_TrROS],0.907 ± 0.11 kcal/mol,0.475 ± 0.24 kcal/mol
SAGGSAGGSAGIKIYAPGFPGMPVEIERDPDEPNVIKIKIKGPDNGEPQERTFPADDLEISAGGSAGGSAGG [r17_341_TrROS],0.526 ± 0.074 kcal/mol,-0.169 ± 0.28 kcal/mol
SAGGSAGGSAGIKKQRNPDGQERETIEIRTKNQPIPITFPPDDNADDLANNFGLPADDIRSAGGSAGGSAGG [r11_1039_TrROS],0.682 ± 0.039 kcal/mol,0.28 ± 0.079 kcal/mol
SAGGSAGGSAGKLKVEIEERNGKLVLKVKLELEPEPEPVEVEKKVEVKTETKMSLEELKKSAGGSAGGSAGG [r17_51_TrROS_Hall],0.952 ± 0.058 kcal/mol,0.471 ± 0.096 kcal/mol
SAGGSAGGSAGMEMKLRPEPVVEVTPTVTTEPDPSLGTTVTTTTYTFDNGEVKTETDTGGSAGGSAGGSAGG [r11_463_JUSTAS],0.0371 ± 0.25 kcal/mol,-0.441 ± 0.28 kcal/mol
SAGGSAGGSAGMKVFIFKDPEKAIEAIKEFAGKNGVKYKIIEIETTPDGYVKIKVEFEPISAGGSAGGSAGG [r11_304_TrMRF],5.31 ± 0.22 kcal/mol,5.48 ± 0.25 kcal/mol
SAGGSAGGSAGMKYIEEAKAKAKPDKKLKITIPPSLPVEEVRKELLEEVPIDDVEFIKNLSAGGSAGGSAGG [r11_524_JUSTAS],-0.491 ± 0.26 kcal/mol,< -1 kcal/mol

Sequence,folding stability dG unfold [1],folding stability dG unfold [2]
SAGGSAGGSAGMLNTTVTVSIPTPEGKVETITIPPGVPLEEAKAKVAEPRPGAEITEIVRVSAGGSAGGSAG [r3_60_JUSTAS],0.764 ± 0.044 kcal/mol,0.165 ± 0.21 kcal/mol
SAGGSAGGSAGMRLLVEKPEGPVPTVTEVEVPLPEGDKARLEEVKEELKKKGYKKVIFLDSAGGSAGGSAGG [r11_196_JUSTAS],-0.417 ± 0.37 kcal/mol,< -1 kcal/mol
SAGGSAGGSAGMTITVYPSDGTVLTRDMSLSEIPELLKKHPELVLESIEEGEGLAKFKVKSAGGSAGGSAGG [r17_22_JUSTAS],-1.05 ± 0.81 kcal/mol,< -1 kcal/mol
SAGGSAGGSAGMTSTVTEVRPGSDSWTVTVTYSENSSTKTQTLTVPAGPTVRSGLPSVVSSAGGSAGGSAGG [r11_921_JUSTAS],0.209 ± 0.15 kcal/mol,-0.435 ± 0.23 kcal/mol
SAGGSAGGSAGMVVETEVLETTPPGRTVRTRTTTREKTPDNAPVTTESESVTEVPSPPLESAGGSAGGSAGG [r11_689_JUSTAS],0.615 ± 0.026 kcal/mol,0.273 ± 0.081 kcal/mol
SAGGSAGGSAGPKSIPLDNATVTEFDSPNGDKVFIFSHPNKKKRLAILKDGKLVKEIPIESAGGSAGGSAGG [r11_1038_TrMRF],0.0908 ± 0.31 kcal/mol,-0.26 ± 0.3 kcal/mol
SAGGSAGGSAGPTITYHPDGRVRIDLHLPNGELLDTGVITPDEAVRLLLETGVRLRTIRPSAGGSAGGSAGG [r11_521_TrMRF],0.662 ± 0.11 kcal/mol,0.166 ± 0.19 kcal/mol
SAGGSAGGSAGPVIRIPDATVTTDPATGTLTVTTAGRTVTVPPGATVTVLPDGTVVVERPSAGGSAGGSAGG [r17_34_JUSTAS],0.759 ± 0.035 kcal/mol,-0.0514 ± 0.067 kcal/mol
SAGGSAGGSAGRTIMIPPNQTAEEAVNHLKEELPPGNKNVTINYWDGDGEWEKFEIEVKKSAGGSAGGSAGG [r17_215_TrROS],-0.616 ± 0.44 kcal/mol,< -1 kcal/mol
SAGGSAGGSAGSAPAGALVTEEVSLEETETFFDPTTKKPLRTVRVTVPVKRERVVSPALPSAGGSAGGSAGG [r11_970_JUSTAS],-0.795 ± 0.69 kcal/mol,< -1 kcal/mol
SAGGSAGGSAGSEVEKARNAALEARRAGVEEVTITMPEELKEKVTALAKEEGINLKIESESAGGSAGGSAGG [r11_371_JUSTAS],0.0457 ± 0.19 kcal/mol,-0.351 ± 0.36 kcal/mol
SAGGSAGGSAGSMPVTVTERVVTSETPLPTDELAVKTTVTYPDGTAADFTRLLPPDAPLESAGGSAGGSAGG [r11_429_JUSTAS],0.875 ± 0.042 kcal/mol,0.158 ± 0.18 kcal/mol
SAGGSAGGSAGSSSFIRKGKDGSRITATPSPSYITISTFPLKGGGIVPSTKTTTLPPSLLSAGGSAGGSAGG [r11_88_JUSTAS],-0.915 ± 0.45 kcal/mol,< -1 kcal/mol
SAGGSAGGSAGVKIRMRGPNGSESKIPVPPDAIQDKFPPGDPIRIPIHRHNNNFHMDIEPVSAGGSAGGSAG [r3_86_TrROS],0.353 ± 0.043 kcal/mol,-0.0674 ± 0.086 kcal/mol
SAGGSAGGSAKKELKIGNVEHNPGDGRYWANIQIKDGKPIVPVEFDDPQDPERFVKKAIKQLSAGGSAGGSA [r18_479_TrROS],-0.706 ± 0.41 kcal/mol,< -1 kcal/mol
SAGGSAGGSAKTVEIPLKDLKPDKDGKYNYDEIQDQIKEKFPPNGIDKVDIDTPRQIWDQFRSAGGSAGGSA [r18_72_TrROS],0.157 ± 0.21 kcal/mol,-0.329 ± 0.42 kcal/mol
SAGGSAGGSALPPGEPVEFPWRIKMGGEEHDVKRTVYRDPDGNVKLNIEIPMPPGNFEIEPVSAGGSAGGSA [r18_428_TrROS],0.206 ± 0.22 kcal/mol,-0.451 ± 0.4 kcal/mol
SAGGSAGGSAMGPPVRRVTITLSDGTRYEVDVAPDDSVAAVRAPLAAHPDVAAVTELTVEPSAGGSAGGSAG [r3_308_JUSTAS],0.99 ± 0.044 kcal/mol,0.282 ± 0.084 kcal/mol
SAGGSAGGSAMKITINVSPDEPGVTIEEAKKRLAPHPVEKVTQTPLPSNSLVVTVDVSPEASAGGSAGGSAG [r3_335_JUSTAS],-0.457 ± 0.2 kcal/mol,< -1 kcal/mol
SAGGSAGGSAMNVTTETRTDPVTGNTTTTTTYTDTGEVVTTTTTTPPETTTTTTTTTSLTKSAGGSAGGSAG [r3_126_JUSTAS],0.982 ± 0.07 kcal/mol,0.524 ± 0.2 kcal/mol
SAGGSAGGSAMRAVVVAFPPDGPPRVFPTDDLAPDERRVTFDPETGELALIEVLPEDGDPASAGGSAGGSAG [r3_356_TrMRF],0.0788 ± 0.23 kcal/mol,< -1 kcal/mol
